Structures can show the parent of a compound that is named as a salt. Blank lines part the entries; values can stand above or below the compound they belong to.
Experiments:
[1] = system: dopamine and the adrenergic receptors; conditions: U2OS cells, agonist 100 pM to 100 µM
Experimental: (§1) Two hours after transfection, all cell populations were pooled, mixed, and evenly divided into fractions for plating onto assay dishes (Fig. 2a). The cells were cultured and stimulated under identical conditions for agonist or antagonist assays as initially described for GPCR split TEV assays (Supplementary Fig. S1a,b).
(§2) After cell lysis, RNA from each sample was isolated and converted into cDNA by reverse transcription. […] This permits the mixing of all samples and sequencing of all pooled samples using a single sequencing run (Fig. 2b). The sample barcodes enable tracing experimental conditions, whereas the read counts per EXTs serve as quantitative measurements for the corresponding GPCRs. […] From the normalized data the fold changes of receptor activities were finally calculated.
(§3) In addition to the stimulation with the single compounds, a compound-mixture (mix) of all agonists was tested. The first set of experiments were carried out in the human osteosarcoma cell line U2OS. We normalized the raw sequencing data to total read numbers of sample codes, followed by averaging reads of internal and external calibrator EXTs as described above (Supplementary Fig. S4).
(§4) Cells were resuspended in culture medium without antibiotics at a density of 1.5 × 10^6 cells/ml (U2OS) or 3 × 10^6 cells/ml (PC12). […] Transfection-mixes were added to cell suspensions and incubated for 2 h at 37 °C without shaking. Suspensions were centrifuged for 5 min at 900 rpm and resuspended in culture medium to remove transfection reagents. All transfection samples were combined within one pool and plated on multiple wells of 6-well plates and incubated for 24 h at 37 °C. Afterwards, cells were starved for 17–18 h and then treated with compounds for 6 h in duplicates. After compound treatment cells were washed with PBS and 500 µl RLT lysis buffer was applied for cell lysis. Lysates were processed for sequencing as described below.
RNA was additional in solution treated with Turbo DNase (Ambion) for 30 min at 37 °C and repurified over an RNeasy column. […]

[2] = system: T1, somatostatin receptor SSTR1; assay: multiplexed GPCRprofiler assay in U2OS cells; format: cell-based, human; conditions: agonist 100 pM to 100 µM
T1 construct: ORFs of GPCRs were PCR amplified; expressed in transfected cells; host or cells: U2OS
Experimental: as §1, §2, §3, §4
(§5) RNA was additional in solution treated with Turbo DNase (Ambion) for 30 min at 37 °C and repurified over an RNeasy column. First-strand cDNA synthesis was performed with 1 µg total RNA using superscript III reverse transcriptase (Invitrogen) and 120 pmol of a random nanomer primer. […] On order to differentiate different samples 13mer barcodes were introduced between 5′ Ion adapter and target sequence. All processed samples of an experiment were combined within one pool and purified using PCR clean-up kit (Macherey-Nagel).
(§6) Raw sequencing data analyses were done by using BLAST algorithm and in-house developed R scripts.

[3] = system: T2, somatostatin receptor SSTR2; assay: multiplexed GPCRprofiler assay in U2OS cells; format: cell-based, human; conditions: agonist 100 pM to 100 µM
T2 construct: ORFs of GPCRs were PCR amplified; expressed in transfected cells; host or cells: U2OS
Experimental: as §1, §2, §3, §4, §5, §6

[4] = system: T3, somatostatin receptor SSTR3; assay: multiplexed GPCRprofiler assay in U2OS cells; format: cell-based, human; conditions: agonist 100 pM to 100 µM
T3 construct: ORFs of GPCRs were PCR amplified; expressed in transfected cells; host or cells: U2OS
Experimental: as §1, §2, §3, §4, §5, §6

[5] = system: T4, Vasopressin receptor AVPR1A; assay: multiplexed GPCRprofiler assay in U2OS cells; format: cell-based, human; conditions: agonist 100 pM to 100 µM
T4 construct: ORFs of GPCRs were PCR amplified; expressed in transfected cells; host or cells: U2OS
Experimental: as §1, §2, §3, §4, §5, §6

[6] = system: T5, Vasopressin receptor AVPR2; assay: multiplexed GPCRprofiler assay in U2OS cells; format: cell-based, human; conditions: agonist 100 pM to 100 µM
T5 construct: ORFs of GPCRs were PCR amplified; expressed in transfected cells; host or cells: U2OS
Experimental: as §1, §2, §3, §4, §5, §6

[7] = target: ADRA1A-V2R-NTEV-tevS-GV (human) (UniProt P35348); assay: split reporter (BiFC, NanoBiT); multiplexed GPCRprofiler: split TEV with EXT barcode read-out, identical experiment in PC12 cells (Supplementary Fig. S5)
Sequence of ADRA1A-V2R-NTEV-tevS-GV (human) (P35348 whole entry): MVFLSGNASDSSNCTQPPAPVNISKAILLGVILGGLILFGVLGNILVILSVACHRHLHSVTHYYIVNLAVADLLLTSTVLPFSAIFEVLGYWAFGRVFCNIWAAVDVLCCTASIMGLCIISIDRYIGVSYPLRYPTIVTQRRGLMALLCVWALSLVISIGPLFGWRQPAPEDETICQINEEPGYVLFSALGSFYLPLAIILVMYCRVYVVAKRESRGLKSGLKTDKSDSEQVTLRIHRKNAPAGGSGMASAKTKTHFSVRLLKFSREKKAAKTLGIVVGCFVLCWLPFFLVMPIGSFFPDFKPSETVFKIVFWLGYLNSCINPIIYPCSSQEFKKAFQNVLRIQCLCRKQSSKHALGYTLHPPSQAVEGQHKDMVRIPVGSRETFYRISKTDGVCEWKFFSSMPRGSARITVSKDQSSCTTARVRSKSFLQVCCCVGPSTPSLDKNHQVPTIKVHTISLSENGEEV

[8] = target: AVPR1A-V2R-NTEV-tevS-GV (human) (UniProt P37288); assay: as above
Sequence of AVPR1A-V2R-NTEV-tevS-GV (human) (P37288 whole entry): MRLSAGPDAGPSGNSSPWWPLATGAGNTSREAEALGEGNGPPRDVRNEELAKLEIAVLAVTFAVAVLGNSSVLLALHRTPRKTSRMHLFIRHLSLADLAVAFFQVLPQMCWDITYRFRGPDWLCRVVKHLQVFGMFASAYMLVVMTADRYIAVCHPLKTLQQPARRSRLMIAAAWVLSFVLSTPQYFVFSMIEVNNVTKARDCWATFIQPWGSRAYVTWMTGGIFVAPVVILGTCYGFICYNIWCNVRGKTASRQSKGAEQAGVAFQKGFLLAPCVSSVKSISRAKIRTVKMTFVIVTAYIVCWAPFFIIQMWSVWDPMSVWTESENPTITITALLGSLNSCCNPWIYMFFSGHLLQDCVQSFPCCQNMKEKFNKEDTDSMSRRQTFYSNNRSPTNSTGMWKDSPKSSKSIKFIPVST

[9] = target: HTR2A-V2R-NTEV-tevS-GV (human) (UniProt P28223); assay: as above
[10] = target: ADRA2B-V2R-NTEV-tevS-GV (human) (UniProt P18089); assay: split reporter (BiFC, NanoBiT); multiplexed GPCRprofiler: split TEV with EXT barcode read-out, U2OS cells transiently transfected with GPCR-V2R-NTEV-tevS-GV and β-arrestin2delta-CTEV, pooled; serotonin, dopamine, epinephrine, vasopressin, somatostatin or their mix, 100 pM to 100 µM, 6 h; also with paliperidone or aripiprazole alone or with an agonist mix (1 µM each, with histamine); fold change over unstimulated
Sequence of ADRA2B-V2R-NTEV-tevS-GV (human) (P18089 whole entry): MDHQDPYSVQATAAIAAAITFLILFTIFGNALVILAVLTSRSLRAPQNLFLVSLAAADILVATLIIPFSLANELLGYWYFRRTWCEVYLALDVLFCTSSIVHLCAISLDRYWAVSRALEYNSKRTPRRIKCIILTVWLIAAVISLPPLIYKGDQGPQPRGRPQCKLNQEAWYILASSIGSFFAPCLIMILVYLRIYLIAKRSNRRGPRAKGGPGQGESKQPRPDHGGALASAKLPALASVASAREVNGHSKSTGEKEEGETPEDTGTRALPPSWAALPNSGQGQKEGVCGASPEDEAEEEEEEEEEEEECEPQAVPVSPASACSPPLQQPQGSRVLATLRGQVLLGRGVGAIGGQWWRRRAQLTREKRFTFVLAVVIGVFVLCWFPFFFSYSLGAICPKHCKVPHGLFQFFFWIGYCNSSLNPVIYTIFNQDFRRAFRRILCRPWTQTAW

[11] = target: ADRA2C-V2R-NTEV-tevS-GV (human) (UniProt P18825); assay: as above
Sequence of ADRA2C-V2R-NTEV-tevS-GV (human) (P18825 whole entry): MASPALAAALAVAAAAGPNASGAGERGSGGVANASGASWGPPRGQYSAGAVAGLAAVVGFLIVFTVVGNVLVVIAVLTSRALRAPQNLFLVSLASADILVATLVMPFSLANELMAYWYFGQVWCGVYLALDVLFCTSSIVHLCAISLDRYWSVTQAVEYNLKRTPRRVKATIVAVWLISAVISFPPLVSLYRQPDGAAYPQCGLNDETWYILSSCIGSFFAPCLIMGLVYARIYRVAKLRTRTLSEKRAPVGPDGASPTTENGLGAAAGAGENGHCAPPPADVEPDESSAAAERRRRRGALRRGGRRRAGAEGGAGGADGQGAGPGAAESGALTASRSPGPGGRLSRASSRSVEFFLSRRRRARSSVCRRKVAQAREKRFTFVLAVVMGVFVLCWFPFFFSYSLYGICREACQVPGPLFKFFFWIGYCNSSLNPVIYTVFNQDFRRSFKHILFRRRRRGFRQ

[12] = target: DRD1-V2R-NTEV-tevS-GV (human) (UniProt P21728); assay: as above
[13] = target: DRD2-V2R-NTEV-tevS-GV (human) (UniProt P14416); assay: as above
Sequence of DRD2-V2R-NTEV-tevS-GV (human) (P14416 whole entry): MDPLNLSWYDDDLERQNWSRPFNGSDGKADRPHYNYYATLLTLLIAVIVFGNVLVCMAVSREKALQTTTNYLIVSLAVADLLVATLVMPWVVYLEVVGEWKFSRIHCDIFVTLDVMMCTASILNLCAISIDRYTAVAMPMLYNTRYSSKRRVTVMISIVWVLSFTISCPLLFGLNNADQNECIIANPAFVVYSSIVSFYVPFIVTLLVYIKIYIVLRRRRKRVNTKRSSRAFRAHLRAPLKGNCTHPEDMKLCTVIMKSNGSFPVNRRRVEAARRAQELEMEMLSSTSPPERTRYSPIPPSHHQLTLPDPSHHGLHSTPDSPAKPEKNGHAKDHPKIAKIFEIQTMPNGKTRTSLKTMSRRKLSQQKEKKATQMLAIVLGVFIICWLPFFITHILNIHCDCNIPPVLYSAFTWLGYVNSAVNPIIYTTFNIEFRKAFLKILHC

[14] = target: DRD3-V2R-NTEV-tevS-GV (human) (UniProt P35462); assay: as above
Sequence of DRD3-V2R-NTEV-tevS-GV (human) (P35462 whole entry): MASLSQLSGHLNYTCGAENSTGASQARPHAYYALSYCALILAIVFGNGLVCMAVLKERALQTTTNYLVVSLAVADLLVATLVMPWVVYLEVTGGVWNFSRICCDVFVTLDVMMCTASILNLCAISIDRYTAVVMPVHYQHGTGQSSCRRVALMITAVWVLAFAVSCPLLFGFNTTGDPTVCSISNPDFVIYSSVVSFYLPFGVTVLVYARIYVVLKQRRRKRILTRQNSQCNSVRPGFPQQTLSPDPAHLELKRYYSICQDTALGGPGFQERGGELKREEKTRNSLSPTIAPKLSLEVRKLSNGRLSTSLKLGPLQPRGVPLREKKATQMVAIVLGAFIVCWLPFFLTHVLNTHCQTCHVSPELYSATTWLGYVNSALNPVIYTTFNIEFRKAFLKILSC

[15] = target: SSTR1-V2R-NTEV-tevS-GV (human) (UniProt P30872); assay: as above
Sequence of SSTR1-V2R-NTEV-tevS-GV (human) (P30872 whole entry): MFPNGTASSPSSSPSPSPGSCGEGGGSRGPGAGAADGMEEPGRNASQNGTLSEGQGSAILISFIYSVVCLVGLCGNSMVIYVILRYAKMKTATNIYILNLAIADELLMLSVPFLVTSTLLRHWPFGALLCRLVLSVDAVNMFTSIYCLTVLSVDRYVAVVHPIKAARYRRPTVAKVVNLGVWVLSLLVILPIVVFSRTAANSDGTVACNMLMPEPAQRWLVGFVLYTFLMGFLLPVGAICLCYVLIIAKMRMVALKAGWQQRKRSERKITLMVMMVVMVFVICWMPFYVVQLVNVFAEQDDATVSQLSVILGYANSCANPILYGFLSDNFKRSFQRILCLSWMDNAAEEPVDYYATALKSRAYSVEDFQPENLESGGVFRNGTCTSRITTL

SSTR2 and SSTR3 = assay: as above

Sequence of β-arrestin2delta-CTEV (P32121 1-383, stated change not applied): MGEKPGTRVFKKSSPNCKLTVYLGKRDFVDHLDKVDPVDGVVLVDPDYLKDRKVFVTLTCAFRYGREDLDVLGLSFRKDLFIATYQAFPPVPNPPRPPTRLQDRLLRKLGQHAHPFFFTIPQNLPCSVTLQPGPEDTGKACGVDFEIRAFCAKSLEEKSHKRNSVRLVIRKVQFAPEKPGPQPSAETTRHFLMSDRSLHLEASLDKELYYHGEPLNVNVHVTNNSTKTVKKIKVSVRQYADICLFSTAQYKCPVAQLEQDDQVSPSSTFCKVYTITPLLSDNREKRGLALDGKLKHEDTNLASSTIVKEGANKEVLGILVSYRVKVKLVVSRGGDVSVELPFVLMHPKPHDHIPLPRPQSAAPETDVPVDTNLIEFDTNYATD

- signals of both receptor subfamilies (dopamine and adrenergic) upon stimulation [1]: elevated signals
Compound: CNC[C@H](O)c1ccc(O)c(O)c1 [Epinephrine, Epinephrine hydrochloride]

Compound: Somatostatin
- induction rate (up to) [2]: up to 4 fold
- induction rate (up to) [3]: 9–10 fold
- induction rate (up to) [4]: 9–10 fold

Compound: [Arg8]-Vasopressin acetate salt
- receptor induction by agonist [5]: induced
- receptor induction by agonist [6]: induced

Compound: β-arrestin2delta-CTEV (from UniProt P32121 1-383) (domain or fragment)
- fold activation (split TEV signal) [7]: 314 fold
- fold activation (split TEV signal) [8]: 44.3 fold
- fold activation (split TEV signal) [9]: 89.5 fold
- fold change of receptor activation (split TEV signal) over unstimulated [10]: 10 fold
- fold change of receptor activation (split TEV signal) over unstimulated [11]: 13 fold
- fold change of receptor activation (split TEV signal) over unstimulated [12]: 2 fold
- fold change of receptor activation (split TEV signal) over unstimulated, at 10 µM serotonin [13]: 5 fold
- fold change of receptor activation (split TEV signal) over unstimulated [14]: 2 fold
- fold change of receptor activation (split TEV signal) over unstimulated [15]: 4 fold
- fold change of receptor activation (split TEV signal) over unstimulated (SSTR2 and SSTR3): 9 to 10 fold

Source: PMC5970223, “Multiplexed profiling of GPCR activities by combining split TEV assays and EXT-based barcoded readouts” (Scientific Reports, 2018)
